Source: the supplement of paper PMC10126150
± gives the standard deviation of the averaged measurements.

Tested on: ATP
Assay: switch fluorescence ratio, 500 uM ATP over buffer (Cy3 cluster intensity, sum of 5 cycles each) (fold (ratio)); higher = stronger signal-on switching upon ATP binding; sequences stand for … in TCGTCGGCAGCGTCAGATGTGTATAAGAGACAGTTTTTTTTTTTTTTTTTTTTTTTTT…TC
Conditions: aptamer strand: ATP DNA aptamer (quencher-CACCTGGGGGAGTATTGCGGAGGAAGG + anchor), 100 nM annealed; ATP concentration: 500 uM
How it was run: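 For every switch-domain sequence, the fluorescence ratio is the mean of per-cluster values, each being summed target-cycle Cy3 intensity over summed buffer-cycle Cy3 intensity. Clusters outside 100-1000 RFU were excluded. On a modified Illumina MiSeq flow-cell, the Cy3-labelled switching-strand clusters were annealed to 100 nM quencher-labelled ATP aptamer, imaged in selection buffer and then after 15 min with 500 uM ATP at 22 °C. Five such cycles were run, with NaOH stripping and re-annealing between them.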
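Further: ATP exposure 15 min at 22 °C before imaging.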

CTTAGAATCG
switch fluorescence ratio: 1 ± 0.025

TTCCCGGGGA
switch fluorescence ratio: 1.24 ± 0.4

TAGGGGACAA
switch fluorescence ratio: 1 ± 0.035

AGAAGGGATT
switch fluorescence ratio: 1.03 ± 0.015

TTTACAACGC
switch fluorescence ratio: 1.05 ± 0.012

AGACTGTCGA
switch fluorescence ratio: 1 ± 0.012

ACTAGAAGGG
switch fluorescence ratio: 0.9833 ± 0.0037

AGGTTCGTTC
switch fluorescence ratio: 0.97 ± 0.039

CCATGTTAAG
switch fluorescence ratio: 0.985 ± 0.02

GGGGTTTTCC
switch fluorescence ratio: 1.01 ± 0.014

AGAATAGTGG
switch fluorescence ratio: 0.96 ± 0.037

AAAGAGGTTT
switch fluorescence ratio: 0.985 ± 0.034

AGGTACGGGA
switch fluorescence ratio: 1.03 ± 0.074

GTGCCGGGGC
switch fluorescence ratio: 1.08 ± 0.11

TATATGGTGG
switch fluorescence ratio: 1.02 ± 0.056

TTGGTGTTTT
switch fluorescence ratio: 1.02 ± 0.03

CTCAACACCT
switch fluorescence ratio: 1.35 ± 0.048

AGTTAGGGCA
switch fluorescence ratio: 0.988 ± 0.042

ACGGTGACGT
switch fluorescence ratio: 1.01 ± 0.028

GTATTTGGGA
switch fluorescence ratio: 0.991 ± 0.054

GTGATCTTTT
switch fluorescence ratio: 1 ± 0.049

GTGGTTGGCC
switch fluorescence ratio: 1.011 ± 0.0027

CTCGGAGATT
switch fluorescence ratio: 1.01 ± 0.018

TTTAGGCCGT
switch fluorescence ratio: 1.05 ± 0.066

CGCTTGACTT
switch fluorescence ratio: 0.985 ± 0.028

TTTTGAGTT
switch fluorescence ratio: 0.986 ± 0.076

GAACTTGTCT
switch fluorescence ratio: 1.02 ± 0.036

TATAGCCGAA
switch fluorescence ratio: 1 ± 0.083

GCTAGGGTGG
switch fluorescence ratio: 0.994 ± 0.018

AGACGGGGCT
switch fluorescence ratio: 0.975 ± 0.017

AATATAGATG
switch fluorescence ratio: 0.9885 ± 0.007

TGCGACGAGG
switch fluorescence ratio: 1.04 ± 0.0011

GCATGACTTT
switch fluorescence ratio: 1.06 ± 0.028

ATGGGTAATC
switch fluorescence ratio: 1.03 ± 0.026

AGCAGGGCTT
switch fluorescence ratio: 1.04 ± 0.05

TCTACTGGGG
switch fluorescence ratio: 0.994 ± 0.029

GGCGGGGGAA
switch fluorescence ratio: 1.01 ± 0.059

CTGGGGGGTG
switch fluorescence ratio: 1.02 ± 0.024

GCGCCTTAAA
switch fluorescence ratio: 0.967 ± 0.041

TTTTCTCTGT
switch fluorescence ratio: 0.967 ± 0.023

ATAGTTAAAT
switch fluorescence ratio: 0.943 ± 0.089

GTTGGAGCTA
switch fluorescence ratio: 1.036 ± 0.0083

ATGGCTATTC
switch fluorescence ratio: 0.979 ± 0.046

TATCGGGGGT
switch fluorescence ratio: 1.02 ± 0.039

TGGTATCAGC
switch fluorescence ratio: 0.999 ± 0.048

TAACCCGATT
switch fluorescence ratio: 0.997 ± 0.029

TTTCTTGGGG
switch fluorescence ratio: 0.979 ± 0.018

TTCCGGGCCC
switch fluorescence ratio: 1.16 ± 0.041

GTGCTATTAT
switch fluorescence ratio: 0.993 ± 0.024

TTGTTGTTCG
switch fluorescence ratio: 1.01 ± 0.034

GCAAAATCTG
switch fluorescence ratio: 1.04 ± 0.06

CGGACGGAAG
switch fluorescence ratio: 1.01 ± 0.0078

TAATCTCCGG
switch fluorescence ratio: 1.04 ± 0.04

ATATGTTAGT
switch fluorescence ratio: 0.988 ± 0.011

AAAGGTAGTA
switch fluorescence ratio: 0.9934 ± 0.0097

CTGATGTTGT
switch fluorescence ratio: 1.0036 ± 0.00066

CCTGGGGCGG
switch fluorescence ratio: 1.07 ± 0.019

ACGTTAAGTG
switch fluorescence ratio: 1 ± 0.011

TAGTCAGAAT
switch fluorescence ratio: 0.967 ± 0.012

CTGATTGTAC
switch fluorescence ratio: 1.08 ± 0.069

AACGCCGAGT
switch fluorescence ratio: 0.9816 ± 0.0097

AAACGCCATT
switch fluorescence ratio: 1.13 ± 0.018

GGATTTGATG
switch fluorescence ratio: 1 ± 0.031

ATAGAAGGGA
switch fluorescence ratio: 0.991 ± 0.044

TAGCTCGGCT
switch fluorescence ratio: 0.95364 ± 0.00022

CGTAATGAAG
switch fluorescence ratio: 1.004 ± 0.0064

TGGTGGGGTA
switch fluorescence ratio: 0.998 ± 0.022

TTTTGAAACT
switch fluorescence ratio: 0.9733 ± 0.0091

TACGGATCGT
switch fluorescence ratio: 0.974 ± 0.03

AGGATTGGGG
switch fluorescence ratio: 1 ± 0.043

ACGATTGGTG
switch fluorescence ratio: 1.07 ± 0.056

GGGGACGATA
switch fluorescence ratio: 1 ± 0.053

TAGTAGCCTT
switch fluorescence ratio: 1.03 ± 0.022

GAACTTGCCT
switch fluorescence ratio: 1 ± 0.018

TCCATGTGCC
switch fluorescence ratio: 1.14 ± 0.14

TAGAGTTTTA
switch fluorescence ratio: 0.972 ± 0.022

GGGCGGGCAG
switch fluorescence ratio: 0.997 ± 0.026

GGATTAATTG
switch fluorescence ratio: 0.996 ± 0.037

AACTACGTCT
switch fluorescence ratio: 0.986 ± 0.055

CGGATAGAGG
switch fluorescence ratio: 0.964 ± 0.012

GTATTTTATT
switch fluorescence ratio: 1.006 ± 0.0064

ATTCTGTTAG
switch fluorescence ratio: 0.993 ± 0.0092

ACAATAATAT
switch fluorescence ratio: 1 ± 0.028

TTTAACCAAT
switch fluorescence ratio: 1.02 ± 0.064

CGGAAAGAAA
switch fluorescence ratio: 1.06 ± 0.058

CGGTAGGGTA
switch fluorescence ratio: 0.991 ± 0.026

GGCGATGTAT
switch fluorescence ratio: 0.967 ± 0.0097

ACGGGCATTC
switch fluorescence ratio: 1.76 ± 0.42

ATTTTTTCAG
switch fluorescence ratio: 1.03 ± 0.014

TCAGTGGGGG
switch fluorescence ratio: 0.97 ± 0.019

ATGATTAGTT
switch fluorescence ratio: 1.01 ± 0.046

TAGGCTTTGT
switch fluorescence ratio: 1.01 ± 0.021

ACATGTGGCA
switch fluorescence ratio: 1.04 ± 0.018

ACCTTTTTTG
switch fluorescence ratio: 0.992 ± 0.024

GAGTGTCCGG
switch fluorescence ratio: 0.982 ± 0.025

GGGAGAAAGG
switch fluorescence ratio: 1.011 ± 0.0067

GCCAGAGTG
switch fluorescence ratio: 2 ± 0.44

AATGTGAGCT
switch fluorescence ratio: 1.04 ± 0.043

GGGGTGGCCA
switch fluorescence ratio: 0.99 ± 0.0098

TTGAGACTAG
switch fluorescence ratio: 1 ± 0.015

CTAAAAAATT
switch fluorescence ratio: 1.01 ± 0.022

GTCGCCGACC
switch fluorescence ratio: 0.996 ± 0.038

CCTCTTCATA
switch fluorescence ratio: 2.54 ± 0.28

GTTTTTTGTC
switch fluorescence ratio: 1.03 ± 0.049

AACGAAGTCG
switch fluorescence ratio: 1 ± 0.015

TAAGGAGAGG
switch fluorescence ratio: 1.01 ± 0.027

TGGTTTTCGG
switch fluorescence ratio: 0.993 ± 0.041

CGGACCAACG
switch fluorescence ratio: 1.09 ± 0.019

ATTTTACGAT
switch fluorescence ratio: 0.999 ± 0.049

CTAATCGGTC
switch fluorescence ratio: 0.874 ± 0.029

GCGGGTGAGG
switch fluorescence ratio: 1.02 ± 0.026

GGAAGGATTC
switch fluorescence ratio: 0.999 ± 0.013

TTCATATTG
switch fluorescence ratio: 0.9923 ± 0.0019

ATGGATCACC
switch fluorescence ratio: 1.019 ± 0.0027

ATCACAGGTT
switch fluorescence ratio: 1.07 ± 0.0082

AGTCTGGGGA
switch fluorescence ratio: 0.99 ± 0.015

TTGCTTTTTG
switch fluorescence ratio: 0.984 ± 0.064

AAGAGGGGGC
switch fluorescence ratio: 0.986 ± 0.045

TGGGTCGGGG
switch fluorescence ratio: 0.985 ± 0.016

AAGGCTGTCT
switch fluorescence ratio: 1.02 ± 0.049

TCGGAATCAA
switch fluorescence ratio: 1.127 ± 0.0071

GTATTTTTGG
switch fluorescence ratio: 0.972 ± 0.03

AGTCATTCTC
switch fluorescence ratio: 0.9841 ± 0.003

TTTCGCTATG
switch fluorescence ratio: 1.04 ± 0.024

GACGACGGGG
switch fluorescence ratio: 1.05 ± 0.028

TATGTACATG
switch fluorescence ratio: 1 ± 0.026

AAGTTTCACG
switch fluorescence ratio: 1 ± 0.058

TGCGAAGGTT
switch fluorescence ratio: 1.04 ± 0.069

GGAATTTTGC
switch fluorescence ratio: 1.03 ± 0.031

TGCAAAAGGT
switch fluorescence ratio: 1.02 ± 0.087

GTGAAGTATG
switch fluorescence ratio: 1.016 ± 0.00074

ATTCACTTGA
switch fluorescence ratio: 1.08 ± 0.061

TGATCTCTTT
switch fluorescence ratio: 1.03 ± 0.049

TGAATGATTT
switch fluorescence ratio: 0.967 ± 0.027

TTCTCGATCT
switch fluorescence ratio: 1.03 ± 0.037

TTACGCTCAT
switch fluorescence ratio: 2.79 ± 0.61

ATATTGAAGG
switch fluorescence ratio: 0.981 ± 0.012

TTTTGAGGT
switch fluorescence ratio: 1.02 ± 0.03

GGTATAATAC
switch fluorescence ratio: 1.23 ± 0.041

AAGGGGGAAC
switch fluorescence ratio: 1.002 ± 0.0052

TGTCGTCGGG
switch fluorescence ratio: 0.995 ± 0.026

GAGTCCAGGC
switch fluorescence ratio: 1.07 ± 0.16

GACTTGGGGC
switch fluorescence ratio: 0.993 ± 0.037

TTTAGGCATT
switch fluorescence ratio: 1.03 ± 0.031

AGGTTATGGT
switch fluorescence ratio: 0.992 ± 0.052

CGGTCCGGG
switch fluorescence ratio: 1.05 ± 0.061

TGTCGTTTTT
switch fluorescence ratio: 1.01 ± 0.039

ATTTTGCGTG
switch fluorescence ratio: 0.98 ± 0.029

GCATTATCCA
switch fluorescence ratio: 1.01 ± 0.031

ATGGGACTTT
switch fluorescence ratio: 1.02 ± 0.037

TTCATCCGGT
switch fluorescence ratio: 1.52 ± 0.091

CAAGTTGTTT
switch fluorescence ratio: 0.996 ± 0.021

AGGAGCGCGG
switch fluorescence ratio: 1.027 ± 0.003

CGATGGAGGA
switch fluorescence ratio: 0.98967 ± 0.00091

TTAGTACCAT
switch fluorescence ratio: 1.01 ± 0.028

CTTGAAACGT
switch fluorescence ratio: 0.992 ± 0.076

ACAAGGGAAG
switch fluorescence ratio: 0.988 ± 0.015

CAAAAGGTTA
switch fluorescence ratio: 0.996 ± 0.011

AGGGGTATGC
switch fluorescence ratio: 0.979 ± 0.033

TTCGTTAGCG
switch fluorescence ratio: 0.996 ± 0.022

ATCATGCCTA
switch fluorescence ratio: 0.989 ± 0.033

GGCAAATTTT
switch fluorescence ratio: 1.02 ± 0.036

GAGAGCTTGT
switch fluorescence ratio: 0.956 ± 0.027

CGGGTGCGGG
switch fluorescence ratio: 1.02 ± 0.038

ATTGATGACT
switch fluorescence ratio: 1.04 ± 0.027

ATTGTTACTG
switch fluorescence ratio: 1.06 ± 0.021

ATGTATTTTC
switch fluorescence ratio: 0.986 ± 0.041

CGAATCCCCA
switch fluorescence ratio: 1.07 ± 0.032

GGCTCTAGGG
switch fluorescence ratio: 0.9921 ± 0.0036

ATGACGGGGT
switch fluorescence ratio: 1.05 ± 0.085

GGCGTGTCGC
switch fluorescence ratio: 0.9852 ± 0.0037

AACCGTATGG
switch fluorescence ratio: 1 ± 0.022

TGAATTGGTG
switch fluorescence ratio: 1.031 ± 0.0055

GAAGTGCTTT
switch fluorescence ratio: 0.995 ± 0.041

ATAACGGCCT
switch fluorescence ratio: 1.007 ± 0.0099

TAGCGAAGTG
switch fluorescence ratio: 0.929 ± 0.061

AATATGCTCC
switch fluorescence ratio: 1.14 ± 0.064

TTGGGGCGCG
switch fluorescence ratio: 0.989 ± 0.051

GTACTGCCTG
switch fluorescence ratio: 1 ± 0.024

CATTCATGCT
switch fluorescence ratio: 0.971 ± 0.033

GTAGGAGCCG
switch fluorescence ratio: 0.9987 ± 0.0097

TTTCGAGAAC
switch fluorescence ratio: 0.9873 ± 0.0066

TTTGTCGTCG
switch fluorescence ratio: 1.004 ± 0.01

AAATTATTTT
switch fluorescence ratio: 0.999 ± 0.014

GGAATTCCCG
switch fluorescence ratio: 0.98 ± 0.054

CGGCGTCCGT
switch fluorescence ratio: 1.01 ± 0.037

AGGGTAGGTC
switch fluorescence ratio: 1.06 ± 0.087

AGTCGTTGGA
switch fluorescence ratio: 0.96555 ± 0.00011

GTCGTAAAAA
switch fluorescence ratio: 1.61 ± 0.0016

GGGGGGTCTC
switch fluorescence ratio: 0.996 ± 0.029

AGGGGCGTAA
switch fluorescence ratio: 1 ± 0.05

TTTTCCCTGG
switch fluorescence ratio: 1.46 ± 0.62

GTGATTTTGG
switch fluorescence ratio: 0.9882 ± 0.0042

GCATTTGGTT
switch fluorescence ratio: 1.01 ± 0.012

ATTTATCGGG
switch fluorescence ratio: 1 ± 0.027

TGGTGCGGCG
switch fluorescence ratio: 1.09 ± 0.031

TGGGAATTAA
switch fluorescence ratio: 0.979 ± 0.04

AAGGATGTTG
switch fluorescence ratio: 0.9998 ± 0.0017

AAGAGGAAAA
switch fluorescence ratio: 1 ± 0.024

AGGGGTTAGT
switch fluorescence ratio: 0.999 ± 0.036
